Measurements taken from US20100196361A1, “Method of inhibition of vascular development using an antibody” (DYAX CORP., priority 2003, published 2010).

T1: human Tie1 Fc (Homo sapiens, UniProt P35590)
T1 construct: selected against the Tie1 extracellular domain fused to human Fc or to a histidine purification tag
T1 sequence (P35590 22-759 limits assumed): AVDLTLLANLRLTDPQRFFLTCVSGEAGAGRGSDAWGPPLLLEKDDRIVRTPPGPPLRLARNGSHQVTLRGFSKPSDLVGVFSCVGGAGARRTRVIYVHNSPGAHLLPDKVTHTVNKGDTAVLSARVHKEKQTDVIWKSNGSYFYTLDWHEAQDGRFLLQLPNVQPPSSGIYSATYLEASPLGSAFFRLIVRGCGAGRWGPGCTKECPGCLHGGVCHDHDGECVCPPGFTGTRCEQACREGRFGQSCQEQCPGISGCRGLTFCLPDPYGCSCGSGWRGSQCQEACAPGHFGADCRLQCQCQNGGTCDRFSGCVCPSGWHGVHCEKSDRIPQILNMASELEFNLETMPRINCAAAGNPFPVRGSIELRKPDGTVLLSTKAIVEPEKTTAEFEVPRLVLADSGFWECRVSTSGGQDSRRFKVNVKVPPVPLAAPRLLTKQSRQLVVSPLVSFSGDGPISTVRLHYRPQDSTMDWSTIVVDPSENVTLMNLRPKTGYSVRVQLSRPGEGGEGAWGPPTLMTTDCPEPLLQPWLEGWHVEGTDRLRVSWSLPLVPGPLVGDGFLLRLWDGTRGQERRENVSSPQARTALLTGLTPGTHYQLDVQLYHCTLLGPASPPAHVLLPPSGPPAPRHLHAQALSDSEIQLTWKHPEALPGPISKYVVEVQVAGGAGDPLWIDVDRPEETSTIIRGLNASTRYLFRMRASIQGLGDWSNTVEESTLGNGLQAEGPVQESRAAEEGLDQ


Target: T1, human Tie1 Fc
Test: ELISA on recombinant Tie1-Fc
Assay type: binding
Details: soluble Fab 5 or 1 μg per 100 μl; 500 or 50 ng antigen per well
Protocol: To evaluate if the conversion of any of the somatic mutations in the framework of E3 back to germline residues had any effect on binding activity the soluble Fabs were produced. The soluble expression vector containing the parental E3 Fab and the germlined E3 Fab construct were grown overnight at 30° C. in 2×TY broth containing 100 μg/ml ampicillin and 2% glucose and use 4 ml of this overnight culture to inoculate 400 ml of 2×TY broth containing 100 μg/ml ampicillin and 0.1% glucose. Cells were grow at 37° C. until an OD600 of 0.8-1.0, 1 mM IPTG was added and the culture was maintained at 30° C. for 4 hours. The cultures were spun down at 4,000 rpm for 15 min at 4 C. […] Dialyze against PBS using dialysis cassettes (SLIDE-A-LYSER™ Dialysis Cassettes, MWCO 10,000, Pierce, cat. no. 66380) and determine the protein concentration from the absorbance at 280 nm assuming that a 1 mg/ml solution has an absorbance of 0.86. The quality of the preparations can be analyzed by reducing and non-reducing SDS-PAGE.
Wells of an IMMULON™ 2 HB plate coated overnight with 500 ng or 50 ng of purified recombinant human Tie1-Fc target antigen per 100 microliters 0.1 M sodium bicarbonate buffer, pH 8.5. […] After washing the wells seven times 100 microliters TMB-H2O2 solution was added to each well and the plate read at 630 nm in an ELISA.

Molecule	binding to recombinant human Tie1-Fc in ELISA
parental E3 Fab: soluble Fab fragment of the parental E3 anti-Tie1 antibody (antibody, V domains shown) VH: EVQLLESGGGLVQPGGSLRLSCAASGFTFSMYGMVWVRQAPGKGLEWVSVISPSGGNTGYADSVKGRFTISRDNSKNTLYLQVNSLRAEDTAVYYCARAPRGYSYGYYYWGQGTLVTVSSASTKGPSVFPLAPSSKSTSGG VL: DIQMTQSPLSLSASVGDRVTITCRASQGIGHYLAWYQQKPGKVPKLLIYTASTLQSGVPSRFSGSGSGTDFTLTINSLQPEDVATYYCQQFNSYPHTFGQGTRLDIK	bound to the recombinant human Tie1-Fc target antigen
germlined E3 Fab: soluble Fab of E3 with LC framework regions germlined to DPK4; LC variable SEQ ID NO:159 (antibody, V domains shown) VH: EVQLLESGGGLVQPGGSLRLSCAASGFTFSMYGMVWVRQAPGKGLEWVSVISPSGGNTGYADSVKGRFTISRDNSKNTLYLQVNSLRAEDTAVYYCARAPRGYSYGYYYWGQGTLVTVSSASTKGPSVFPLAPSSKSTSGG VL: DIQMTQSPSSLSASVGDRVTITCRASQGIGHYLAWYQQKPGKVPKLLIYTASTLQSGVPSRFSGSGSGTDFTLTISSLQPEDVATYYCQQFNSYPHTFGQGTRLEIK	bound to the recombinant human Tie1-Fc target antigen
